These are literature values, as cited in paper PMC10466379.

Broadly, the pKa is the pH at which an ionisable group is half protonated.

Experiment in all cases: not stated (values taken from the PKAD database; the article says PKAD values come mainly from NMR or IR titrations)
Holding throughout (details): not stated (the curated set excludes proteins with ligands, nucleic acids and structural metal ions)

Data set [1] has as its target Lys39 (UniProt position 39, EFPGGKIEMGE).
For data set [2], the target named is His92 (UniProt position 119, NGKTDHYLLQF).
The target of data set [3] is His137 (UniProt position 164, CGIIAHTKENQ).
The target of data set [4] is His50 (UniProt position 77, GSSYPHWFTNG).
The target of data set [5] is His35 (UniProt position 62, AESNSHHAPLS).
Data set [6] concerns the target His36 (UniProt position 63, ESNSHHAPLSD).
For data set [7], the target named is His150 (UniProt position 177, LKLCSH-----).
Data set [8] addresses Glu96 (UniProt position 123, DHYLLEFPTFP).
In data set [9] the target is His92 (UniProt position 119, NGKTDHYLLEF).
Data set [10] has as its target His82 (UniProt position 109, DRPPKHSKDGN).
Data set [11] addresses His104 (UniProt position 131, TFPDGHDYKFD).
In data set [12] the target is His72 (UniProt position 73, GINTAHKARQV).
Data set [13] concerns the target His60 (UniProt position 60, NETQTHQQVGN).
In data set [14] the target is His124 (UniProt position 206, NTHEQHLRKSE).
Data set [15] addresses His8 (UniProt position 90, STKKLHKEPAT).
Data set [16] concerns the target His46 (UniProt position 128, TPETKHPKKGV).
The target of data set [17] is His121 (UniProt position 203, KPNNTHEQHLR).
For data set [18], the target named is His8 (UniProt position 90, STKKLHAEPAT).
Data set [19] addresses His124 (UniProt position 206, NTHEQHLRASE).
Data set [20] has as its target His124 (UniProt position 206, NTHEQHLRKAE).
The target of data set [21] is Glu92 (UniProt position 174, RGLAYEYADGK).
The target in data set [22] is Glu36 (UniProt position 118, PMTFRELLVDT).
Data set [23] deals with Glu103 (UniProt position 185, MVNEAEVRQGL).
For data set [24], the target named is Glu66 (UniProt position 148, FTKKMEENAKK).

As to “MutT protein (Escherichia coli (inferred from PDB 1MUT; not stated in the article))”, the pKa in data set [1] is 8.4.
For the substance “alpha-sarcin E96Q (parent PDB 1DE3) (Aspergillus giganteus (inferred from PDB 1DE3; not stated in the article); E96Q)”, the pKa in data set [2] is 7.2; in data set [3] it was 5.9; in data set [4] it was 6.4; in data set [5], 6.3; in data set [6], 7.3; in data set [7], 7.9.
For “alpha-sarcin H50Q (parent PDB 1DE3) (Aspergillus giganteus (inferred from PDB 1DE3; not stated in the article); H50Q)”, the pKa in data set [8] was 5; in data set [9] it was 7.3; in data set [3], 6.1; in data set [5], 6.2; in [10] it was 7.4; in [7] it was 7.3.
In the case of “alpha-sarcin H50Q/H137Q (parent PDB 1DE3) (Aspergillus giganteus (inferred from PDB 1DE3; not stated in the article); H50Q;H137Q)”, the pKa in [8] is recorded as 5.4; in [9], 7.4; in data set [11], 7.3; in data set [5] it was 6.3; in [6], 7.3; in [10], 7. Moreover, in data set [7], the pKa was 7.6.
For “alpha-sarcin H137Q (parent PDB 1DE3) (Aspergillus giganteus (inferred from PDB 1DE3; not stated in the article); H137Q)”, the pKa in [8] is 5.7; in data set [9], 7.1; in data set [11] it was 6.6; in data set [5], 6.3; in [10], 7.4; in data set [7] it was 7.7.
For the substance “bovine heart phosphotyrosyl phosphatase (low molecular weight PTPase) (Bos taurus)”, the pKa in data set [12] is 9.19.
In the case of “family 11 xylanase (PDB 1H4G) (Bacillus agaradhaerens (inferred from PDB 1H4G; not stated in the article))”, the pKa in [13] is 4.01.
Regarding “staphylococcal nuclease D77A (parent PDB 1STN) (Staphylococcus aureus (inferred from PDB 1STN; not stated in the article); D77A)”, the pKa in data set [14] is on record as 5.77; in data set [15] it was 6.44; in data set [16], 6.43; in [17], 5.89.
Consider “staphylococcal nuclease D77N (parent PDB 1STN) (Staphylococcus aureus (inferred from PDB 1STN; not stated in the article); D77N)”, for which the pKa in data set [14] is reported as 5.81; in data set [15], 6.29; in data set [16], 6.53; in data set [17] it was 5.77.
As for “staphylococcal nuclease E73A (parent PDB 1STN) (Staphylococcus aureus (inferred from PDB 1STN; not stated in the article); E73A)”, the pKa in data set [14] is on record as 5.63; in data set [15], 6.47; in [16] it was 6.51; in [17] it was 5.24.
As for “staphylococcal nuclease E101A (parent PDB 1STN) (Staphylococcus aureus (inferred from PDB 1STN; not stated in the article); E101A)”, the pKa in data set [14] is reported as 5.04; in data set [15], 6.49; in data set [16], 6.4; in data set [17], 5.26.
For “staphylococcal nuclease K9A (parent PDB 1STN) (Staphylococcus aureus (inferred from PDB 1STN; not stated in the article); K9A)”, the pKa in data set [14] was 5.67; in [18], 6.73; in data set [16] it was 6.47; in data set [17], 5.48.
Consider “staphylococcal nuclease K127A (parent PDB 1STN) (Staphylococcus aureus (inferred from PDB 1STN; not stated in the article); K127A)”, for which the pKa in data set [19] is recorded as 5.99; in data set [15], 6.51; in data set [16], 6.45; in data set [17], 5.3.
For “staphylococcal nuclease S128A (parent PDB 1STN) (Staphylococcus aureus (inferred from PDB 1STN; not stated in the article); S128A)”, the pKa in data set [15] is given as 6.53; in data set [16], 6.49; in data set [17], 5.25; in data set [20] it was 5.71.
As for “staphylococcal nuclease Y91A (parent PDB 1STN) (Staphylococcus aureus (inferred from PDB 1STN; not stated in the article); Y91A)”, the pKa in data set [14] is 5.82; in data set [15], 6.42; in data set [16], 6.52; in data set [17] it was 5.32.
Regarding “staphylococcal nuclease Y91F (parent PDB 1STN) (Staphylococcus aureus (inferred from PDB 1STN; not stated in the article); Y91F)”, the pKa is given as 5.65 in data set [14], 6.36 in data set [15], 6.39 in [16] and 6.04 in data set [17].
As to “staphylococcal nuclease Y93A (parent PDB 1STN) (Staphylococcus aureus (inferred from PDB 1STN; not stated in the article); Y93A)”, the pKa in [14] is reported as 5.68; in [15] it was 6.45; in data set [16], 6.48; in data set [17], 5.94.
For the substance “staphylococcal nuclease Y93F (parent PDB 1STN) (Staphylococcus aureus (inferred from PDB 1STN; not stated in the article); Y93F)”, the pKa is listed as 5.52 in data set [14], 6.46 in [15] and 6.42 in data set [16].
On to “staphylococcal nuclease variant I92E (parent PDB 2LKV) (Staphylococcus aureus (inferred from PDB 2LKV; not stated in the article); I92E)”, for which, in data set [21], the pKa was 9.
In the case of “staphylococcal nuclease variant L36E (parent PDB 2LKV) (Staphylococcus aureus (inferred from PDB 2LKV; not stated in the article); L36E)”, in data set [22], the pKa is listed as 8.7.
For “staphylococcal nuclease variant L103E (parent PDB 2LKV) (Staphylococcus aureus (inferred from PDB 2LKV; not stated in the article); L103E)”, in data set [23], the pKa was 8.9.
Turning to “staphylococcal nuclease variant V66E (parent PDB 2LKV) (Staphylococcus aureus (inferred from PDB 2LKV; not stated in the article); V66E)”, the pKa in [24] was 8.5.
